Results on two molecules are retold here after PMC4118869 (PLoS ONE, 2014).

In the assay the target is recombinant H5-HA, A/Vietnam/1203/2004 (H5N1) (Influenza A virus A/Vietnam/1203/2004 …, UniProt Q5EP31, strain). Nature of the assay: SPR. Particulars: both partners purified.

Usually Kd stands for the equilibrium constant for the complex coming apart.

B1: R1a-B6 monovalent (VHH)
VHH: QVQLVESGGGLVQPGGSLRLSCAASGSFFSRYRMGWYRQAPGEQRELVASIAYDGSTSYADPVKGRFTISRDNANTVHLQMYSLKPDDTAVYYCNLDPPGILYWGQGTQVTVSS
notes: source: E. coli WK6, periplasmic extract, purified (Talon IMAC, Superdex 75 SEC)
Take B1: the Kd amounted to 0.51 nM.

B2: R1a-A5 monovalent (VHH)
VHH: QVQLVESGGGLVQPGGSLRLSCSASGSAVLFSTYPMSWYRQAPGKQRELVAAVTTDGSTSYADYAKGRFTISRDNAKNTVYLQMNSLKPEDTAVYYCNARDGFFNRYDYWGQGTQVTVSS
notes: as for B1
With B2, the Kd is 0.27 nM.
